Key:
Experiment in all cases: holdup assay
Set-up in all cases: key: below the threshold = too weak to quantify, mostly under pKd 3.1 to 4
[1] = molecular target: SNX27, Q96L92
[2] = molecular target: T1, MPDZ_12, O75970
T1 sequence (O75970 1857-1958, limits assumed, looked up): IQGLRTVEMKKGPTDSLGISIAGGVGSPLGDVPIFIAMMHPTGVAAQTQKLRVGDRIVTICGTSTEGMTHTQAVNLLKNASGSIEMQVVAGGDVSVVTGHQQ

[3] = molecular target: T2, DLG3_3, Q92796
T2 sequence (Q92796 374-475, limits assumed, looked up): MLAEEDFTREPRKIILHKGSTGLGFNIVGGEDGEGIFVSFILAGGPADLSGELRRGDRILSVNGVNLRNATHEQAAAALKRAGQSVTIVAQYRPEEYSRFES

[4] = molecular target: PTPN3, P26045
[5] = molecular target: T3, ARHGAP21, Q5T5U3
T3 sequence (Q5T5U3 45-169, limits assumed, looked up): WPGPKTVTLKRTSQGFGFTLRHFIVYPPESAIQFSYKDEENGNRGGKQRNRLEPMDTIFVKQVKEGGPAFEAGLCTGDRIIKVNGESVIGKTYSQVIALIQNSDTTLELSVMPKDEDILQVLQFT

[6] = molecular target: IL16_3, Q14005
[7] = molecular target: GORASP2, Q9H8Y8
[8] = molecular target: T4, LNX2_3, Q8N448
T4 sequence (Q8N448 463-564, limits assumed, looked up): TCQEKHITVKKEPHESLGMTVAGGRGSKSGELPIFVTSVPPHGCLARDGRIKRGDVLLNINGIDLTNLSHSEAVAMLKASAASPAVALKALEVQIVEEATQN

[9] = molecular target: T5, DLG3_1, Q92796
T5 sequence (Q92796 125-227, limits assumed, looked up): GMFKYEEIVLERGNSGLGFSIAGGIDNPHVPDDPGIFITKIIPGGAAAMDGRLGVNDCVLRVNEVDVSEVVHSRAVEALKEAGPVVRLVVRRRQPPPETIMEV

[10] = molecular target: T6, DFNB31_1, Q9P202
T6 sequence (Q9P202 135-233, limits assumed, looked up): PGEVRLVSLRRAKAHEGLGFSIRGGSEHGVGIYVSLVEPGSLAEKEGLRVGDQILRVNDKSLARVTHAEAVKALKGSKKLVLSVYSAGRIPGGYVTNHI

[11] = molecular target: T7, TJP3_3, O95049
T7 sequence (O95049 375-456, limits assumed, looked up): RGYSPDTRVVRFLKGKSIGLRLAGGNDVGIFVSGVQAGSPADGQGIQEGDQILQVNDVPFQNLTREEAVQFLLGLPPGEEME

[12] = molecular target: T8, GRIP1_7, Q9Y3R0
T8 sequence (Q9Y3R0 999-1096, limits assumed, looked up): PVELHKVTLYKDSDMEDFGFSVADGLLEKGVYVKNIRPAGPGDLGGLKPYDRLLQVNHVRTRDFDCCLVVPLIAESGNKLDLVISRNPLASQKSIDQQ

[13] = molecular target: T9, RHPN1, Q8TCX5
T9 sequence (Q8TCX5 508-602, limits assumed, looked up): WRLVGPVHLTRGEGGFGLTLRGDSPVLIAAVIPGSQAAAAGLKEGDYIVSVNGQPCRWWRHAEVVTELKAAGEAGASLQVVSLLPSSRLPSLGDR

[14] = molecular target: FRMPD2_1, Q68DX3
[15] = molecular target: DLG4_1, P78352
[16] = molecular target: HTRA1, Q92743
[17] = molecular target: T10, GRIP1_2, Q9Y3R0
T10 sequence (Q9Y3R0 145-248, limits assumed, looked up): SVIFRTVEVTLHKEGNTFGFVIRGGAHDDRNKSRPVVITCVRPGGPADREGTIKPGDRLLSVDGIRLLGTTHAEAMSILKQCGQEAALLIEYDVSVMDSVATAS

[18] = molecular target: LIMK2, P53671
[19] = molecular target: T11, PARD3B_1, Q8TEW8
T11 sequence (Q8TEW8 196-299, limits assumed, looked up): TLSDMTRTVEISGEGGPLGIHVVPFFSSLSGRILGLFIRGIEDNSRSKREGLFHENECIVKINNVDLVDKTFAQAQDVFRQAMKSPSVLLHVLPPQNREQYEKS

[20] = molecular target: Inadl_5, Q8NI35
[21] = molecular target: T12, GRIP1_5, Q9Y3R0
T12 sequence (Q9Y3R0 568-668, limits assumed, looked up): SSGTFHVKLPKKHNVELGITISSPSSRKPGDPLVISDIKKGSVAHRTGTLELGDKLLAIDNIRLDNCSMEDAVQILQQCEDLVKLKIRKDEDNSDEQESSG

[22] = molecular target: NHERF4_1, Q86UT5-2
[23] = molecular target: LDB3, O75112
[24] = molecular target: GRID2IP_1, A4D2P6
[25] = molecular target: GRID2IP_2, A4D2P6
[26] = plain residues with an end cap or a label only (N-terminal biotin on a linker: ttds)
[27] = plain residues with an end cap or a label only (N-terminal biotin on a linker: ahx)

Chain of GRID2IP_1, A4D2P6 (A4D2P6 1-87): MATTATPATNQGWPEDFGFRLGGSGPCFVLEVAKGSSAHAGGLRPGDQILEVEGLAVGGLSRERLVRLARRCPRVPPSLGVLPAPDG
Chain of FRMPD2_1, Q68DX3 (Q68DX3 770-861): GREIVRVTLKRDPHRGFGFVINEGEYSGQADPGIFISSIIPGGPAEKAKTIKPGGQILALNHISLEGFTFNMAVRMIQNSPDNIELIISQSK
Chain of Inadl_5, Q8NI35 (Q8NI35 673-780): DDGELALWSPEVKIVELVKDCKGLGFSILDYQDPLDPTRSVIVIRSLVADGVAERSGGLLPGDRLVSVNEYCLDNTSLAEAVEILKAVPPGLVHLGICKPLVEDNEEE
Chain of NHERF4_1, Q86UT5-2 (Q86UT5 other isoform, or with tags, fused parts or gaps): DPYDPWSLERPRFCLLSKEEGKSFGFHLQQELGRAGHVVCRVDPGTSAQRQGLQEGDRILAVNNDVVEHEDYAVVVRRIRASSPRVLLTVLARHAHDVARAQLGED
Chain of PTPN3, P26045 (P26045 505-587): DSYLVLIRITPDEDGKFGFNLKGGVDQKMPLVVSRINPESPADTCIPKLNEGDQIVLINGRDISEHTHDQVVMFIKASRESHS
Chain of HTRA1, Q92743 (Q92743 360-477): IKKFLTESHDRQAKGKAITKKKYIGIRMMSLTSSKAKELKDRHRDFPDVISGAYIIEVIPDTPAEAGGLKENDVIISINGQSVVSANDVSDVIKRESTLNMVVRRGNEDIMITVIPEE
Chain of LIMK2, P53671 (P53671 143-248): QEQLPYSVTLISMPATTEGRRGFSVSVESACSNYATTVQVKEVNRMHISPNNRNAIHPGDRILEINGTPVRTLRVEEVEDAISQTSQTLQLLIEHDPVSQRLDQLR
Chain of LDB3, O75112 (O75112 1-94): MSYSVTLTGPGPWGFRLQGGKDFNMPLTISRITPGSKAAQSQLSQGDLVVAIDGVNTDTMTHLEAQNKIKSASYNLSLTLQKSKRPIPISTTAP
Chain of GRID2IP_2, A4D2P6 (A4D2P6 272-370): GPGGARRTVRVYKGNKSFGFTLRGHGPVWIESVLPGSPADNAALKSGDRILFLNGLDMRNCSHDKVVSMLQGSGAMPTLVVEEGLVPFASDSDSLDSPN
Chain of DLG4_1, P78352 (P78352 62-152): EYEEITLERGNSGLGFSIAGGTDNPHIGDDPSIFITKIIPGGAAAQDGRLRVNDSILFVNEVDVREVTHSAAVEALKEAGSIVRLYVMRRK
Chain of IL16_3, Q14005 (Q14005 1107-1207): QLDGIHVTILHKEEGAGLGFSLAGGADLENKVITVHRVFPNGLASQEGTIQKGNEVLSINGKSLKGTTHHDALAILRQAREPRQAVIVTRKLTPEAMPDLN

SRSRRRETAL [HPV33-E6, P06427]
pKd [1, 26]: 4.91 | pKd [2, 26]: below the threshold | pKd [3, 26]: 5.07 | pKd [4, 26]: 5.01 | pKd [5, 26]: 3.45 | pKd [6, 26]: below the threshold | pKd [7, 26]: 4.26 | pKd [8, 26]: below the threshold | pKd [9, 26]: 3.79 | pKd [10, 26]: 3.77 | pKd [11, 26]: below the threshold | pKd [12, 26]: below the threshold | pKd [13, 26]: 3.81 | pKd [14, 26]: 3.54 | pKd [15, 26]: 4.57 | pKd [16, 26]: 3.48 | pKd [17, 26]: below the threshold | pKd [18, 26]: below the threshold | pKd [19, 26]: 3.43 | pKd [20, 26]: below the threshold | pKd [21, 26]: below the threshold | pKd [22, 26]: 4.42 | pKd [23, 26]: below the threshold | pKd [24, 26]: below the threshold | pKd [25, 26]: 4.18

PKMKLNETSF [SHKBP1, Q8TBC3]
pKd [1, 27]: 5.54 | pKd [2, 27]: below the threshold | pKd [3, 27]: below the threshold | pKd [4, 27]: 4.68 | pKd [5, 27]: 3.5 | pKd [6, 27]: below the threshold | pKd [7, 27]: below the threshold | pKd [8, 27]: below the threshold | pKd [9, 27]: below the threshold | pKd [10, 27]: 3.66 | pKd [11, 27]: below the threshold | pKd [12, 27]: below the threshold | pKd [13, 27]: 3.72 | pKd [14, 27]: below the threshold | pKd [15, 27]: below the threshold | pKd [16, 27]: below the threshold | pKd [17, 27]: below the threshold | pKd [18, 27]: below the threshold | pKd [19, 27]: below the threshold | pKd [20, 27]: below the threshold | pKd [21, 27]: below the threshold | pKd [22, 27]: 3.73 | pKd [23, 27]: below the threshold | pKd [24, 27]: below the threshold | pKd [25, 27]: below the threshold

YNSFLSVTTV [PDZRN3, Q9UPQ7]
pKd [1, 27]: 4.49 | pKd [2, 27]: below the threshold | pKd [3, 27]: 3.67 | pKd [4, 27]: 3.48 | pKd [5, 27]: below the threshold | pKd [6, 27]: below the threshold | pKd [7, 27]: 4.33 | pKd [8, 27]: below the threshold | pKd [9, 27]: below the threshold | pKd [10, 27]: below the threshold | pKd [11, 27]: below the threshold | pKd [12, 27]: below the threshold | pKd [13, 27]: 4.4 | pKd [14, 27]: 3.54 | pKd [15, 27]: 3.84 | pKd [16, 27]: 4.3 | pKd [17, 27]: below the threshold | pKd [18, 27]: below the threshold | pKd [19, 27]: below the threshold | pKd [20, 27]: below the threshold | pKd [21, 27]: below the threshold | pKd [22, 27]: below the threshold | pKd [23, 27]: below the threshold | pKd [24, 27]: below the threshold | pKd [25, 27]: 3.57

SHSSKGETAV [FZD7, O75084]
pKd [1, 26]: 4.8 | pKd [2, 26]: below the threshold | pKd [3, 26]: 4.12 | pKd [4, 26]: 4.84 | pKd [5, 26]: below the threshold | pKd [6, 26]: below the threshold | pKd [7, 26]: 3.66 | pKd [8, 26]: below the threshold | pKd [9, 26]: 4.01 | pKd [10, 26]: 3.65 | pKd [11, 26]: below the threshold | pKd [12, 26]: below the threshold | pKd [13, 26]: below the threshold | pKd [14, 26]: 3.8 | pKd [15, 26]: 4.4 | pKd [16, 26]: below the threshold | pKd [17, 26]: below the threshold | pKd [18, 26]: below the threshold | pKd [19, 26]: 3.52 | pKd [20, 26]: below the threshold | pKd [21, 26]: below the threshold | pKd [22, 26]: below the threshold | pKd [23, 26]: below the threshold | pKd [24, 26]: below the threshold | pKd [25, 26]: below the threshold
